Experimental data published in article doi:10.1101/590273, “The structure of an injectisome export gate demonstrates conservation of architecture in the core export gate between flagellar and virulence type three secretion systems” (bioRxiv, 2019).
“And” between values parts separate entries of the source, which are not always exact repeats. Equal values may be shown once.

T1: Shigella flexneri SctT (Spa29) (Shigella flexneri, UniProt P0A1M6 1-256)
T1 construct: Spa29 (SctT), export gate component of the Shigella flexneri virulence type three secretion system; expressed from the complete operon; One copy stands in the complex; not shown: dual-strep tag, C-terminal, kept
T1 sequence: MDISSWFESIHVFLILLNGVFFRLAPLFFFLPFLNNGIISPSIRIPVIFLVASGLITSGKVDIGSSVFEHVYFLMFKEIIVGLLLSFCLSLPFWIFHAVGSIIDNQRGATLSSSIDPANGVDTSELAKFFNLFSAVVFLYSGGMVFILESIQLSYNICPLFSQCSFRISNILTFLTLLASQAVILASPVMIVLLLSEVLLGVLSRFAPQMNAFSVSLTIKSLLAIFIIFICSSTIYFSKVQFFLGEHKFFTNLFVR

T2: Salmonella enterica serovar Typhimurium FliR (Salmonella enterica serovar Typhimurium, UniProt P54702 1-264)
T2 construct: FliR, flagellar export gate component of Salmonella enterica serovar Typhimurium; source: expression of the complete operon
T2 sequence: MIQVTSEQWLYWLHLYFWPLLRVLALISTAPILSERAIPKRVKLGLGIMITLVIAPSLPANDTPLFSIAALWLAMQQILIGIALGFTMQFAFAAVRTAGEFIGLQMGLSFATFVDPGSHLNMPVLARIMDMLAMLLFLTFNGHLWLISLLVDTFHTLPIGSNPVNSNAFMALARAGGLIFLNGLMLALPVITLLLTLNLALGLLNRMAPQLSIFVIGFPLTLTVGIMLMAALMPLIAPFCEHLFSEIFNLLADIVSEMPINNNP

B1: Shigella flexneri SctR (Spa24) (natural protein)
chain: MLSDMSLIATLSFFTLLPFLVAAGTCYIKFSIVFVMVRNALGLQQVPSNMTLNGIALIMALFVMKPIIEAGYENYLNGPQKFDTISDIVRFSDSGLMEYKQYLKKHTDLELARFFQRSEEENADLKSAENNDYSLFSLLPAYALSEIKDAFKIGFYLYLPFVVVDLVISSILLALGMMMMSPITISVPIKLVLFVALDGWGILSKALIEQYINIPA
notes: Spa24 (SctR), export gate component of the Shigella flexneri virulence type three secretion system; expressed from the complete operon; Five copies stand in the SctR5S4T1 complex
B2: Shigella flexneri SctS (Spa9) (natural protein)
chain: MSDIVYMGNKALYLILIFSLWPVGIATVIGLSIGLLQTVTQLQEQTLPFGIKLIGVSISLLLLSGWYGEVLLSFCHEIMFLIKSGV
notes: Spa9 (SctS), export gate component of the Shigella flexneri virulence type three secretion system; expressed from the complete operon; Two to four copies stand in the complexes seen (SctR5S2T1, SctR5S3T1, SctR5S4T1)
B3: Salmonella enterica serovar Typhimurium FliP (natural protein)
chain: QLPGLISQPLAGGGQSWSLSVQTLVFITSLTFLPAILLMMTSFTRIIIVFGLLRNALGTPSAPPNQVLLGLALFLTFFIMSPVIDKIYVDAYQPFSEQKISMQEALDKGAQPLRAFMLRQTREADLALFARLANSGPLQGPEAVPMRILLPAYVTSELKTAFQIGFTIFIPFLIIDLVIASVLMALGMMMVPPATIALPFKLMLFVLVDGWQLLMGSLAQSFYS
notes: FliP, flagellar export gate component of Salmonella enterica serovar Typhimurium; source: expression of the complete operon
B4: Salmonella enterica serovar Typhimurium FliQ (natural protein)
chain: MTPESVMMMGTEAMKVALALAAPLLLVALITGLIISILQAATQINEMTLSFIPKIVAVFIAIIVAGPWMLNLLLDYVRTLFSNLPYIIG
notes: FliQ, flagellar export gate component of Salmonella enterica serovar Typhimurium; source: expression of the complete operon

Key:
[1] = molecular target: T1, Shigella flexneri SctT (Spa29); assay: cryo-EM structure; SctRST complex co-expressed from one operon and purified by the strep tag on SctT; 0.01% LMNG in TBS (100 mM Tris, 150 mM NaCl, 1 mM EDTA, pH 8), 8.4 mg/ml; single particle cryoEM, RELION-3, 3.5 Å; further 3D classification gives classes with 2, 3 or 4 SctS; settings: both partners purified
[2] = molecular target: B1; assay: as above; settings: both partners purified
[3] = molecular target: T2, Salmonella enterica serovar Typhimurium …; assay: cryo-EM structure; re-refinement of the original S. Typhimurium FliPQR data (Kuhlen, Abrusci et al. 2018) in RELION-3 with particle polishing and per-particle CTF refinement, 3.65 Å; coordinates remodeled and re-refined; settings: both partners purified
[4] = molecular target: the molecule itself; assay: as above

B1
binding result [1]: binds

B2
stoichiometry N [1]: 4 and 2 and 3
binding result [2]: binds

B3
binding result [3]: binds
binding result [4]: binds

B4
binding result [3]: binds
